These results are taken from patent US20130330346A1 (Novartis, published 2013).

Assay [1] deals with T1, Human CXCR2 (human, UniProt P25025 1-360).
T1 sequence: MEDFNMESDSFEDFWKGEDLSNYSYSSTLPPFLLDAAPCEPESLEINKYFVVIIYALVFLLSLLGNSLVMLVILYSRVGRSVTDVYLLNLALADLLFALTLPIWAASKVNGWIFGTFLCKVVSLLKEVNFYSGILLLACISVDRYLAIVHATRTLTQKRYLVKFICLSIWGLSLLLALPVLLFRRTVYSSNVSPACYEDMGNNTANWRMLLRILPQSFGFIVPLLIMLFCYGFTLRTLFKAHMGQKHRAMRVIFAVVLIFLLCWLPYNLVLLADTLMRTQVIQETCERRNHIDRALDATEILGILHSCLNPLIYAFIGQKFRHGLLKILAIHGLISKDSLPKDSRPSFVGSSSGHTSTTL
As to the kind of experiment: cell-based or functional assay.

Assay [2] concerns the target T2, Cynomolgus CXCR2 (cynomolgus, UniProt Q28519 3-353 (rhesus entry)).
T2 chain: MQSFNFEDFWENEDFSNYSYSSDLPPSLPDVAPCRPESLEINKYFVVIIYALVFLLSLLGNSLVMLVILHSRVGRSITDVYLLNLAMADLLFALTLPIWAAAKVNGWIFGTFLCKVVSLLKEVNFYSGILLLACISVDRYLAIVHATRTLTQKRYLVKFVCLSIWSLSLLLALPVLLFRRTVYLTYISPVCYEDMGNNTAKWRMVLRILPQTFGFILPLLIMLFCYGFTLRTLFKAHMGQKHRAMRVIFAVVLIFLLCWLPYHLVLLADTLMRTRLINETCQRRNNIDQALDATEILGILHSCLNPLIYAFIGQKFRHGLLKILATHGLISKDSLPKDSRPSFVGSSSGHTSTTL
Nature of the assay: cell-based or functional assay.

Assay [3] deals with T1, Human CXCR2. Nature of the assay: FACS hGro-α competition.
The target in assay [4] is T2, Cynomolgus CXCR2. As to the kind of experiment: FACS hGro-α competition.
For assay [5], the target named is T1, Human CXCR2. Nature of the assay: cell-based or functional assay. The source holds these as a separate data set.
Assay [6] addresses T1, Human CXCR2. Nature of the assay: FACS, periplasmic extract vs FMAT Blue Gro-α. As for the experimental part: Periplasmic extracts (as described above) were analyzed on FACS for competition with Gro-α in binding to human CXCR2. 2×10⁵ cells were incubated with a ½ dilution of periplasmic extracts in FACS buffer (PBS+10% fetal bovine serum (Sigma, F7524)) for 30 minutes at 4° C. Then, an equal volume of 6 nM of FMAT Blue-labeled human Gro-α in FACS buffer was added and incubation was continued for another 30 minutes at 4° C. in the dark. Cells were then washed three times in FACS buffer and finally resuspended in FACS buffer. Dead cells were stained with propidium iodide (Sigma, P4170). Samples were then analyzed on a FACSarray (BD Biosciences).

The target in assay [7] is T1, Human CXCR2. As to the kind of experiment: cell-based or functional assay. The source holds these as a separate data set.
In assay [8] the target is T2, Cynomolgus CXCR2. As to the kind of experiment: cell-based or functional assay.
In assay [9] the target is T1, Human CXCR2. Nature of the assay: cell-based or functional assay. This is another data set of the same source.
Assay [10] deals with T2, Cynomolgus CXCR2. Nature of the assay: cell-based or functional assay.
In assay [11] the target is T1, Human CXCR2. Nature of the assay: FACS competition vs 3 nM FMAT-Blue Gro-α. Here is the method: (§1) Purified monovalent anti-CXCR2Nanobodies were titrated against 3 nM FMAT-Blue-labeled Gro-α in the FACS ligand competition assay on human and cynomolgus CXCR2 (Table 10). On human CXCR2, blocking potencies range between double digit nM and sub-nM whereas on cynomolgus CXCR2, they range between single and double digit nM.

Assay [12] concerns the target T2, Cynomolgus CXCR2. As to the kind of experiment: FACS competition vs 3 nM FMAT-Blue Gro-α. Here is the method: as §1
Another assay concerns the target T3, Human 1to19 peptide (human).
T3 construct: First 19 N-terminal amino acids of human CXCR2, captured on neutravidin; also called human CXCR2 1 to19 peptide; 1-19 Nter peptide
T3 peptide: MEDFNMESDSFEDFWKGED-biotin
As to the kind of experiment: ELISA, periplasmic extract on biotinylated peptide. Here is the method:
In another setup, periplasmic extracts were analyzed for binding to human 1 to 19 peptide by ELISA. MaxiSorb plates (Nunc, 430341) were coated for two hours with neutravidin followed by one hour blocking (PBS, 1% casein). Then 100 nM biotinylated human 1 to 19 peptide was added to these plates for one hour (PBS, 0.1% casein, 0.05% tween20) followed by one hour incubation with 10-fold dilutions of periplasmic extracts. Unbound periplasmic extracts were washed away (PBS supplemented with 0.05% tween20) and bound Nanobodies were detected using mouse anti-myc (Roche, 11667149001) followed by rabbit anti-mouse-HRP conjugate (Dakocytomation, P0260). Table 8 summarizes the ratios of the binding signals of anti-CXCR2Nanobodies over an irrelevant control Nanobody.

For assay [13], the target named is T1, Human CXCR2. Nature of the assay: FACS hGro-α competition. The source holds these as a separate data set.
The target of assay [14] is T2, Cynomolgus CXCR2. Nature of the assay: FACS hGro-α competition.
The target in assay [15] is T1, Human CXCR2. As to the kind of experiment: cell-based or functional assay. The source holds these as a separate data set.
Assay [16] concerns the target T2, Cynomolgus CXCR2. As to the kind of experiment: cell-based or functional assay.
Assay [17] concerns the target T1, Human CXCR2. As to the kind of experiment: FACS hGro-α competition. This is another data set of the same source.
For assay [18], the target named is T2, Cynomolgus CXCR2. As to the kind of experiment: FACS hGro-α competition.
In assay [19] the target is T1, Human CXCR2. Nature of the assay: cell-based or functional assay. This is another data set of the same source.
The target in assay [20] is T2, Cynomolgus CXCR2. As to the kind of experiment: cell-based or functional assay.

Substitutions are numbered along the chain they refer to. Where two headings read alike, the source gives them in different places. Ends that are not written are not given here.

B1: 127D1 (VHH)
VHH: EVQLVESGGGLVQAGESLRLSCAASGSTFDFKVMGWYRQPPGKQREGVAAIRLSGNMHYAESVKGRFTISKANAKNTVYLQMNSLRPEDTAVYYCKVNIRGQDYWGQGTQVTVSS
notes: Tested as periplasmic extract (pAX50) and as purified His6-tagged protein (pAX100); also called 127D01; not shown: C-terminal c-myc tag and His6 tag coded by the vector
On to B1, for which the “FLIPR hGro-α IC50” value in the assay with Human CXCR2 [1] is 15 nM. Besides, the “FLIPR hGro-α IC50” value with Cynomolgus CXCR2 [2] was determined as 1100 nM. The half-maximal inhibitory concentration (IC50) with Human CXCR2 [3] was 0.55 nM. Besides, in the assay with Cynomolgus CXCR2 [4], the 50% inhibitory concentration (IC50) was determined as 6.1 nM. Moreover, in the assay with Human CXCR2 [5], the “IC50 (M) at 5 nM GROα (inhibition of GRO-α, FIG. 2)” value was determined as 1.64e-09 M; the “IC50 (M) at 15 nM GROα (inhibition of GRO-α, FIG. 2)” value was 2.04e-09 M; the “IC50 (M) at 45 nM GROα (inhibition of GRO-α, FIG. 2)” value is 3.26e-09 M; the “IC50 (M) at 150 nM GROα (inhibition of GRO-α, FIG. 2)” value was found to be 4.6e-09 M. For the same molecule, the “FACS Gro-α competition (% inhibition)” value with Human CXCR2 [6] was determined as 46.7%. In the assay with Human CXCR2 [7], the “FLIPR % inhibition max” value worked out at 100%, the “FLIPR IC50 (GRO-α induced calcium release)” value was 21.9 nM, the “[35S]GTPγS % inhibition max (GRO-α)” value is 66% and the “[35S]GTPγS IC50 (GRO-α)” value worked out at 12.5 nM. In the assay with Cynomolgus CXCR2 [8], the “FLIPR % inhibition max” value turned out to be 100% and the “FLIPR IC50 (GRO-α induced calcium release)” value was 753 nM. Also, in the assay with Human CXCR2 [9], the “Human Chemotaxis IC50 (GROα)” value came to 14 nM and the “Human WBSC IC50 (rhGROα)” value stood at 4.9 nM. Moreover, in the assay with Cynomolgus CXCR2 [10], the “Cynomologus WBSC IC50 (rhGROα)” value was over 100 nM. Besides, in the assay with Human CXCR2 [11], the “% inhibition of max” value turned out to be 61.1% and the IC50 came to 0.309 nM. For the same molecule, in the assay with Cynomolgus CXCR2 [12], the “% inhibition of max” value came to 82.6% and the IC50 is 4.41 nM. In addition, the “ratio of binding signal relative to blank control” value with Human 1to19 peptide stood at 39.5 ratio.

B2: 97A9 (VHH)
VHH: EVQLVESGGGLVQPGGSLRLSCVASGSIVRINTMGWYRQTPGKQRELVADITSGGNINYIDAVKGRFTISRDNTKNTVYLQMNSLKPEDTAVYYCNAEIVVLVGVWTQRARTGNYWGQGTQVTVSS
notes: Tested as periplasmic extract (pAX50) and as purified His6-tagged protein (pAX100); also called 097A09; not shown: C-terminal c-myc tag and His6 tag coded by the vector
As to B2, the IC50 came to 12 nM in the assay with Human CXCR2 [13], 63 nM with Cynomolgus CXCR2 [14], 17.2 nM with Human CXCR2 [11] and 64.1 nM with Cynomolgus CXCR2 [12]. Also, in the assay with Human CXCR2 [6], the “FACS Gro-α competition (% inhibition)” value is 85.9%. Further, the “FLIPR % inhibition max” value with Human CXCR2 [7] and in the assay with Cynomolgus CXCR2 [8] was 100% throughout. Further, the “FLIPR IC50 (GRO-α induced calcium release)” value worked out at 39.9 nM with Human CXCR2 [7] and 640 nM with Cynomolgus CXCR2 [8]. The “[35S]GTPγS % inhibition max (GRO-α)” value in the assay with Human CXCR2 [7] worked out at 100%. The “[35S]GTPγS IC50 (GRO-α)” value with Human CXCR2 [7] was 50.3 nM. Besides, the “Human Chemotaxis IC50 (GROα)” value in the assay with Human CXCR2 [9] was determined as 48.5 nM. In addition, the “Human WBSC IC50 (rhGROα)” value with Human CXCR2 [9] came to 11.6 nM. Besides, the “Cynomologus WBSC IC50 (rhGROα)” value with Cynomolgus CXCR2 [10] was over 100 nM. Further, the “FLIPR hGro-α IC50” value with Human CXCR2 [15] turned out to be 94 nM; with Cynomolgus CXCR2 [16], 800 nM. In addition, the “% inhibition of max” value in the assay with Human CXCR2 [11] is 93.9%; with Cynomolgus CXCR2 [12] it was 53%. For the same molecule, the “ratio of binding signal relative to blank control” value with Human 1to19 peptide was 0.8 ratio.

B3: 163D2 (VHH)
VHH: EVQLVESGGGLVQAGGSLRLSCAASGRTFSDYAMGWFRQAPGKEREFVAAITWNGGRVFYTASVKGRFTISRDNAKNTMYLQMNSLKPEDTAVYYCAADKDRRTDYLGHPVAYWGQGTQVTVSS
notes: Tested as periplasmic extract (pAX50) and as purified His6-tagged protein (pAX100); also called 163D02; not shown: C-terminal c-myc tag and His6 tag coded by the vector
Turning to B3, the half-inhibitory concentration (IC50) with Human CXCR2 [17] came out at 2.8 nM; with Cynomolgus CXCR2 [18], 7.1 nM; with Human CXCR2 [11], 6.95 nM; with Cynomolgus CXCR2 [12], 14.8 nM. For the same molecule, the “FACS Gro-α competition (% inhibition)” value with Human CXCR2 [6] amounted to 86.8%. In addition, the “FLIPR hGro-α IC50” value with Human CXCR2 [19] stood at 66 nM; with Cynomolgus CXCR2 [20], 92 nM. Further, the “FLIPR % inhibition max” value with Human CXCR2 [7] and with Cynomolgus CXCR2 [8] was 100% each time. The “FLIPR IC50 (GRO-α induced calcium release)” value in the assay with Human CXCR2 [7] is 1.91 nM; with Cynomolgus CXCR2 [8], 37.2 nM. Also, the “[35S]GTPγS % inhibition max (GRO-α)” value in the assay with Human CXCR2 [7] is 100%. The “[35S]GTPγS IC50 (GRO-α)” value with Human CXCR2 [7] is 53.2 nM. For the same molecule, the “Human WBSC IC50 (rhGROα)” value with Human CXCR2 [9] amounted to 6.6 nM. Also, the “Cynomologus WBSC IC50 (rhGROα)” value in the assay with Cynomolgus CXCR2 [10] was over 100 nM. Further, the “% inhibition of max” value came out at 96.4% with Human CXCR2 [11] and 91% with Cynomolgus CXCR2 [12]. The “ratio of binding signal relative to blank control” value with Human 1to19 peptide is 0.5 ratio.

B4: CXCR20086 (VHH)
VHH: B3 VHH with V5L, A14P, A75S, M79L, K87R, Q119L
As for B4, the IC50 in the assay with Human CXCR2 [17] is 2 nM; in the assay with Cynomolgus CXCR2 [18], 4.8 nM. In addition, the results for the “FLIPR hGro-α IC50” value in the assay with Human CXCR2 [19] and with Cynomolgus CXCR2 [20] were 73 nM and 85 nM, respectively.
